B1: FGF21 truncation mutant 1-180 (ligand)
chain: HPIPDSSPLLQFGGQVRQRYLYTDDAQQTEAHLEIREDGTVGGAADQSPESLLQLKALKPGVIQILGVKTSRFLCQRPDGALYGSLHFDPEACSFRELLLEDGYNVYQSEAHGLPLHLPGNKSPHRDPAPRGPARFLPLPGLPPAPPEPPGILAPQPPDVGSSDPLSMVGPSQGRSPSYA
B2: FGF21 truncation mutant 1-173 (ligand)
chain: HPIPDSSPLLQFGGQVRQRYLYTDDAQQTEAHLEIREDGTVGGAADQSPESLLQLKALKPGVIQILGVKTSRFLCQRPDGALYGSLHFDPEACSFRELLLEDGYNVYQSEAHGLPLHLPGNKSPHRDPAPRGPARFLPLPGLPPAPPEPPGILAPQPPDVGSSDPLSMVGPSQ
B3: FGF21 truncation mutant 1-172 (ligand)
chain: HPIPDSSPLLQFGGQVRQRYLYTDDAQQTEAHLEIREDGTVGGAADQSPESLLQLKALKPGVIQILGVKTSRFLCQRPDGALYGSLHFDPEACSFRELLLEDGYNVYQSEAHGLPLHLPGNKSPHRDPAPRGPARFLPLPGLPPAPPEPPGILAPQPPDVGSSDPLSMVGPS
B4: FGF21 truncation mutant 1-171 (ligand)
chain: HPIPDSSPLLQFGGQVRQRYLYTDDAQQTEAHLEIREDGTVGGAADQSPESLLQLKALKPGVIQILGVKTSRFLCQRPDGALYGSLHFDPEACSFRELLLEDGYNVYQSEAHGLPLHLPGNKSPHRDPAPRGPARFLPLPGLPPAPPEPPGILAPQPPDVGSSDPLSMVGP
B5: FGF21 truncation mutant 1-169 (ligand)
chain: HPIPDSSPLLQFGGQVRQRYLYTDDAQQTEAHLEIREDGTVGGAADQSPESLLQLKALKPGVIQILGVKTSRFLCQRPDGALYGSLHFDPEACSFRELLLEDGYNVYQSEAHGLPLHLPGNKSPHRDPAPRGPARFLPLPGLPPAPPEPPGILAPQPPDVGSSDPLSMV
B6: FGF21 truncation mutant 1-167 (ligand)
chain: HPIPDSSPLLQFGGQVRQRYLYTDDAQQTEAHLEIREDGTVGGAADQSPESLLQLKALKPGVIQILGVKTSRFLCQRPDGALYGSLHFDPEACSFRELLLEDGYNVYQSEAHGLPLHLPGNKSPHRDPAPRGPARFLPLPGLPPAPPEPPGILAPQPPDVGSSDPLS
B7: FGF21 truncation mutant 1-166 (ligand)
chain: HPIPDSSPLLQFGGQVRQRYLYTDDAQQTEAHLEIREDGTVGGAADQSPESLLQLKALKPGVIQILGVKTSRFLCQRPDGALYGSLHFDPEACSFRELLLEDGYNVYQSEAHGLPLHLPGNKSPHRDPAPRGPARFLPLPGLPPAPPEPPGILAPQPPDVGSSDPL
B8: FGF21 truncation mutant 1-165 (ligand)
chain: HPIPDSSPLLQFGGQVRQRYLYTDDAQQTEAHLEIREDGTVGGAADQSPESLLQLKALKPGVIQILGVKTSRFLCQRPDGALYGSLHFDPEACSFRELLLEDGYNVYQSEAHGLPLHLPGNKSPHRDPAPRGPARFLPLPGLPPAPPEPPGILAPQPPDVGSSDP
B9: FGF21 truncation mutant 2-181 (ligand)
chain: PIPDSSPLLQFGGQVRQRYLYTDDAQQTEAHLEIREDGTVGGAADQSPESLLQLKALKPGVIQILGVKTSRFLCQRPDGALYGSLHFDPEACSFRELLLEDGYNVYQSEAHGLPLHLPGNKSPHRDPAPRGPARFLPLPGLPPAPPEPPGILAPQPPDVGSSDPLSMVGPSQGRSPSYAS
B10: FGF21 truncation mutant 3-181 (ligand)
chain: IPDSSPLLQFGGQVRQRYLYTDDAQQTEAHLEIREDGTVGGAADQSPESLLQLKALKPGVIQILGVKTSRFLCQRPDGALYGSLHFDPEACSFRELLLEDGYNVYQSEAHGLPLHLPGNKSPHRDPAPRGPARFLPLPGLPPAPPEPPGILAPQPPDVGSSDPLSMVGPSQGRSPSYAS
B11: FGF21 truncation mutant 4-181 (ligand)
chain: PDSSPLLQFGGQVRQRYLYTDDAQQTEAHLEIREDGTVGGAADQSPESLLQLKALKPGVIQILGVKTSRFLCQRPDGALYGSLHFDPEACSFRELLLEDGYNVYQSEAHGLPLHLPGNKSPHRDPAPRGPARFLPLPGLPPAPPEPPGILAPQPPDVGSSDPLSMVGPSQGRSPSYAS
B12: FGF21 truncation mutant 1-178 (ligand)
chain: HPIPDSSPLLQFGGQVRQRYLYTDDAQQTEAHLEIREDGTVGGAADQSPESLLQLKALKPGVIQILGVKTSRFLCQRPDGALYGSLHFDPEACSFRELLLEDGYNVYQSEAHGLPLHLPGNKSPHRDPAPRGPARFLPLPGLPPAPPEPPGILAPQPPDVGSSDPLSMVGPSQGRSPS
B13: FGF21 truncation mutant 5-181 (ligand)
chain: DSSPLLQFGGQVRQRYLYTDDAQQTEAHLEIREDGTVGGAADQSPESLLQLKALKPGVIQILGVKTSRFLCQRPDGALYGSLHFDPEACSFRELLLEDGYNVYQSEAHGLPLHLPGNKSPHRDPAPRGPARFLPLPGLPPAPPEPPGILAPQPPDVGSSDPLSMVGPSQGRSPSYAS
B14: FGF21 truncation mutant 7-181 (ligand)
chain: SPLLQFGGQVRQRYLYTDDAQQTEAHLEIREDGTVGGAADQSPESLLQLKALKPGVIQILGVKTSRFLCQRPDGALYGSLHFDPEACSFRELLLEDGYNVYQSEAHGLPLHLPGNKSPHRDPAPRGPARFLPLPGLPPAPPEPPGILAPQPPDVGSSDPLSMVGPSQGRSPSYAS
B15: FGF21 truncation mutant 8-181 (ligand)
chain: PLLQFGGQVRQRYLYTDDAQQTEAHLEIREDGTVGGAADQSPESLLQLKALKPGVIQILGVKTSRFLCQRPDGALYGSLHFDPEACSFRELLLEDGYNVYQSEAHGLPLHLPGNKSPHRDPAPRGPARFLPLPGLPPAPPEPPGILAPQPPDVGSSDPLSMVGPSQGRSPSYAS
B16: FGF21 truncation mutant 9-181 (ligand)
chain: LLQFGGQVRQRYLYTDDAQQTEAHLEIREDGTVGGAADQSPESLLQLKALKPGVIQILGVKTSRFLCQRPDGALYGSLHFDPEACSFRELLLEDGYNVYQSEAHGLPLHLPGNKSPHRDPAPRGPARFLPLPGLPPAPPEPPGILAPQPPDVGSSDPLSMVGPSQGRSPSYAS
B17: FGF21 truncation mutant 1-177 (ligand)
chain: HPIPDSSPLLQFGGQVRQRYLYTDDAQQTEAHLEIREDGTVGGAADQSPESLLQLKALKPGVIQILGVKTSRFLCQRPDGALYGSLHFDPEACSFRELLLEDGYNVYQSEAHGLPLHLPGNKSPHRDPAPRGPARFLPLPGLPPAPPEPPGILAPQPPDVGSSDPLSMVGPSQGRSP
B18: FGF21 truncation mutant 1-176 (ligand)
chain: HPIPDSSPLLQFGGQVRQRYLYTDDAQQTEAHLEIREDGTVGGAADQSPESLLQLKALKPGVIQILGVKTSRFLCQRPDGALYGSLHFDPEACSFRELLLEDGYNVYQSEAHGLPLHLPGNKSPHRDPAPRGPARFLPLPGLPPAPPEPPGILAPQPPDVGSSDPLSMVGPSQGRS
B19: FGF21 truncation mutant 1-174 (ligand)
chain: HPIPDSSPLLQFGGQVRQRYLYTDDAQQTEAHLEIREDGTVGGAADQSPESLLQLKALKPGVIQILGVKTSRFLCQRPDGALYGSLHFDPEACSFRELLLEDGYNVYQSEAHGLPLHLPGNKSPHRDPAPRGPARFLPLPGLPPAPPEPPGILAPQPPDVGSSDPLSMVGPSQG
B20: human FGF21 (ligand)
chain: HPIPDSSPLLQFGGQVRQRYLYTDDAQQTEAHLEIREDGTVGGAADQSPESLLQLKALKPGVIQILGVKTSRFLCQRPDGALYGSLHFDPEACSFRELLLEDGYNVYQSEAHGLPLHLPGNKSPHRDPAPRGPARFLPLPGLPPAPPEPPGILAPQPPDVGSSDPLSMVGPSQGRSPSYAS

target: T1, β-Klotho overexpressed in recombinant human 293T kidney cells; assay: cell-based or functional assay

How did the “Efficacy (ELK-luciferase, relative to wild-type FGF21)” value turn out when B1 was run?
Its value is 93.2%.

B2 was tested. Which “Efficacy (ELK-luciferase, relative to wild-type FGF21)” value did it give?
Its value is 96.1%.

Which “Efficacy (ELK-luciferase, relative to wild-type FGF21)” value does the source give for B3 here?
The value was 97.5%.

Which “Efficacy (ELK-luciferase, relative to wild-type FGF21)” value does the source give for B4 here?
The value was 113%.

How did the “Efficacy (ELK-luciferase, relative to wild-type FGF21)” value turn out when B5 was run?
Its value is 84.9%.

B6 was tested. Which “Efficacy (ELK-luciferase, relative to wild-type FGF21)” value did it give?
The value was 20%.

With B7 as the binder, how does the “Efficacy (ELK-luciferase, relative to wild-type FGF21)” value read?
Its value is 20%.

How did the “Efficacy (ELK-luciferase, relative to wild-type FGF21)” value turn out when B8 was run?
Its value is 10%.

B9 was tested. Which “Efficacy (ELK-luciferase, relative to wild-type FGF21)” value did it give?
Its value is 112%.

For B10, which “Efficacy (ELK-luciferase, relative to wild-type FGF21)” value is on record?
The value was 130%.

How did the “Efficacy (ELK-luciferase, relative to wild-type FGF21)” value turn out when B11 was run?
The value was 117%.

Which “Efficacy (ELK-luciferase, relative to wild-type FGF21)” value does the source give for B12 here?
The value was 95%.

With B13 as the binder, how does the “Efficacy (ELK-luciferase, relative to wild-type FGF21)” value read?
The value was 120%.

How did the “Efficacy (ELK-luciferase, relative to wild-type FGF21)” value turn out when B14 was run?
The value was 74.2%.

With B15 as the binder, how does the “Efficacy (ELK-luciferase, relative to wild-type FGF21)” value read?
The value was 24.9%.

Which “Efficacy (ELK-luciferase, relative to wild-type FGF21)” value does the source give for B16 here?
The value was 12.5%.

How did the “Efficacy (ELK-luciferase, relative to wild-type FGF21)” value turn out when B17 was run?
Its value is 112%.

For B18, which “Efficacy (ELK-luciferase, relative to wild-type FGF21)” value is on record?
Its value is 105%.

With B19 as the binder, how does the “Efficacy (ELK-luciferase, relative to wild-type FGF21)” value read?
Its value is 105%.

target: T1, β-Klotho overexpressed in recombinant …; assay: cell-based or functional assay; remark: another data set of the same source

B20 was tested. Which “EC50 (nM), ELK-luciferase” value did it give?
Its value is 0.4 nM.

And the “Efficacy, ELK-luciferase” value?
Its value is 100%.
